According to the supplement of paper PMC9170038:

Test system: MS2 coat protein
Experiment: apparent KD of MS2 coat protein; designed switch direction (-1 OFF switch, 1 ON switch): -1; higher = weaker reporter binding
Summary of the method: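 On Illumina chips, designed RNA switches with common flanks were made by stalled E. coli RNA polymerase. Titrations with SNAP-549-labelled MS2 coat protein, doubling from 0.7 or 1.5 nM to 3 µM, were done with no input, with 200 uM small-molecule ligand, or with an oligonucleotide input. Apparent KD is the median per design over clusters, from curve fits of normalised cluster fluorescence.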

[1] = input ligand: microRNA oligo, concentration not stated
[2] = Eterna round: R95, input ligand: microRNA oligo, concentration not stated
[3] = Eterna round: R95, input ligand: FMN 200 uM
[4] = Eterna round: R95, input ligand: none

Sequence | apparent KD of MS2 coat protein (input ligand: FMN 200 uM) [nM] | apparent KD of MS2 coat protein (input ligand: none) [nM] | apparent KD of MS2 coat protein [1] [nM] | apparent KD of MS2 coat protein [2] [nM] | apparent KD of MS2 coat protein [3] [nM] | apparent KD of MS2 coat protein [4] [nM]
CAGCUGUCAGGAUAUCGUGCAUACAACGAAAGUUCUAUGUGCGAGAAGGGACAUGAGGAUCACCCAUGUUUCCG [Omei Ex4 A23] (Eterna round: R97, puzzle: Exclusion 4) | 21.1 | 16.1 |  |  |  | 
CAGUACUGAGGAUAUACAUGAGGAUCACCCAUGUAAUAAGGUUAGGAAACUAACCUAUGUAGAAGGCAGUACUG [Eli x3 4.07] (Eterna round: R97, puzzle: Exclusion 3) | 13.2 | 14.7 |  |  |  | 
CAGUACUGAGGAUAUACAUGAGGAUCACCCAUGUGAUCUAGUGCACGCGUACGUGUACGUAGAAGGCAGUACUG [JL 3.27 m3] (Eterna round: R97, puzzle: Exclusion 3) | 562 | 46.8 |  |  |  | 
CAGUACUGAGGAUAUACAUGAGGAUCACCCAUGUGAUUUGGUGCACGCGUACGUGUACGUAGAAGGCAGUACUG [JL 3.27 m5] (Eterna round: R97, puzzle: Exclusion 3) | 363 | 24.2 |  |  |  | 
CAGUACUGAGGAUAUACAUGAGGAUCACCCAUGUGUUCCAGCUAGGAAUCUAGCAAAAGUAGAAGGCAGUACUG [salish99_ex3_r3_094x] (Eterna round: R96, puzzle: Exclusion 3) | 727 | 25.1 | 22.4 |  |  | 
CAGUACUGAGGAUAUACAUGAGGAUCACCCAUGUGUUCCAGCUAGGAAUCUAGCAAAAGUAGAAGGCAGUACUG [salish99_ex3_r3_094x] (puzzle: Exclusion 3) |  |  |  | 25.3 |  | 
CAGUACUGAGGAUAUACAUGAGGAUCACCCAUGUGUUCCAGCUAGGUAACUAGCAAAAGUAGAAGGCAGUACUG [salish99_ex3_r3_096x] (puzzle: Exclusion 3) |  |  |  | 25.7 |  | 
CAGUACUGAGGAUAUACAUGAGGAUCACCCAUGUGUUCCUGCUAGGAAACUAGCAAAAGUAGAAGGCAGUACUG [salish99_ex3_r3_098x] (Eterna round: R96, puzzle: Exclusion 3) | 516 | 27.5 | 26.1 |  |  | 
CAGUACUGAGGAUAUACAUGAGGAUCACCCAUGUGUUCCUGCUAGGAAACUAGCAAAAGUAGAAGGCAGUACUG [salish99_ex3_r3_098x] (puzzle: Exclusion 3) |  |  |  | 28.5 |  | 
CAGUACUGAGGAUAUACAUGAGGAUCACCCAUGUGUUCCUGCUAGGAAACUAGCAAGGGUAGAAGGCAGUACUG [Salish 065 m4] (Eterna round: R97, puzzle: Exclusion 3) | 132 | 16.4 |  |  |  | 
CAGUCCGUUUGAGGAUAUCUCUGGAUCGCCAUGAGAGAAGGCAAACAUGAGGAUCACCCAUGUGGUACCGACUCAACGUCGACA [Eternabot solution 10] (Eterna round: R96, puzzle: Exclusion NG 1) | 20.7 | 16 | 11.6 |  |  | 
CAUCCACAUGAGGAUCACCCAUGUGAGGAUAUGAUACUAUGUACUUCGGUACAUAGUAUCAGAAGGCACAGGUG [Ex1-3: 59] (puzzle: Exclusion 1) |  |  |  | 111 |  | 
CAUCCUAUUGUAGGAUAUCCGCUUAUUAUAUUGGGAGAAGGACAUGAGGAUCACCCAUGUGUGUAAUCAGAUGUGCGUGUUAAC [an other try] (Eterna round: R96, puzzle: Exclusion NG 1) | 173 | 82.2 | 66.1 |  |  | 
CAUGAUCUUCGGAUCAUGGACAUGAGGAUCACCCAUGUCACGAGCAGAUCCUCAUGCAAGCUUUUUGCUCGUCUUAU [Sensor v3 - Turn-off variant 1 - 35] (puzzle: Sensor v3, turn-off variant 1) |  |  |  | 8.73 | 62.9 | 85.2
CAUGAUCUUCGGAUCAUGUACAUGAGGAUCACCCAUGUGACGAGUAGAUCCUCAAACAAGCUUUUUGCUCGUCUUAU [Sensor v3 - Turn-off variant 1 - 19] (puzzle: Sensor v3, turn-off variant 1) |  |  |  | 12.1 | 50.7 | 64.5
CAUGAUUGGCGAGGAUAUUGUUCUACAUGGCGACGAGAAGGCGCCUGUCACAUGAGGAUCACCCAUGUGAGUCUGGUGAAUGAG [Ex NG1 #84] (Eterna round: R96, puzzle: Exclusion NG 1) | 27 | 22.2 | 16.6 |  |  | 
CAUGAUUGGGAAGGAUAUUGACCUAGUUAGCGACGAGAAGGUCCCUGUCACAUGAGGAUCACCCAUGUGAAUCUGGUGAAAGAG [Ex NG1 #100] (Eterna round: R96, puzzle: Exclusion NG 1) | 29.8 | 24.2 | 20.4 |  |  | 

Sequence | apparent KD of MS2 coat protein (input ligand: FMN 200 uM) [nM] | apparent KD of MS2 coat protein (input ligand: none) [nM] | apparent KD of MS2 coat protein [1] [nM] | apparent KD of MS2 coat protein [2] [nM] | apparent KD of MS2 coat protein [3] [nM] | apparent KD of MS2 coat protein [4] [nM]
CAUGCACAUGAGGAUCACCCAUGUGAGGAUAUUUAGCGUCAGUAAUCAAUAGACAGCAGAAGAAGGCACCUGGU [Eternabot (L2) Solution 73] (Eterna round: R97, puzzle: Exclusion 1) | 35 | 29.4 |  |  |  | 
CAUGCUUCGGCAUGUACAAGCUUUUUGCUCGUCUUAUUAACAUGAGGAUCACCCAUGUACAAGAGACCUCAUGUAUU [Sensor v3 - turn-off variant 2 - 11] (puzzle: Sensor v3, turn-off variant 2) |  |  |  | 22.9 | 293 | 338
CAUUAUGUUGAGGAUAUGCGCCGGAAAACUGACGCAGAAGGCGACACAUGAGGAUCACCCAUGUCAGUUCGCGA [salish99_ex6_r004_424] (Eterna round: R97, puzzle: Exclusion 6) | 10.6 | 10.6 |  |  |  | 
CAUUAUUAUCGAGGAUAUCCUAUUGUAAUUCUGGGAGAAGGCGGACUCAACAUGAGGAUCACCCAUGUAAGACGGGUGCUAGAG [Ex NG1 #24] (Eterna round: R96, puzzle: Exclusion NG 1) | 306 | 276 | 236 |  |  | 
CAUUUGUAAGGAUAUGCACCGAUCUCCGAAAGGAGAUCGGUGCAGAAGGUACAUGAGGAUCACCCAUGUUGAUG [Mod of Brourd 11 - Jieux - Exclusion 4] (Eterna round: R97, puzzle: Exclusion 4) | 218 | 33.6 |  |  |  | 
CCAACUAAUUAGGAUAUUAAGGACAUCAGUAAGUAAGAAGGGAUUACAUGAGGAUCACCCAUGUGGUCCUCGGG [Eternabot (L2) Solution 57] (Eterna round: R97, puzzle: Exclusion 6) | 226 | 147 |  |  |  | 
CCAAGCUUAUUCAUUAACCACAUGAGGAUCACCCAUGUAUAGGCAAUUAUGACUGGGCAAUGUGGUGCUCGUCUUAU [Sensor-V1 #28] (Eterna round: R97, puzzle: Sensor, turn-off variant 1) | 39.5 | 41.3 |  |  |  | 
CCAGCGGACAAAGGAUAUUGCGGUGACCGGCUCGGCGUACCGAGCCUACAUGAGGAUCACCCAUGUAAGAAGGUUGUCGUAGGA [Mat - Exclusion NG 2 - Mod of JL - D73] (Eterna round: R96, puzzle: Exclusion NG 2) | 56.1 | 19.5 | 13.2 |  |  | 
CCAGCGUAUGUGAGGAUAUGCUGGUCCUUGGAUCAGCAGAAGGCACAUGAGGAUCACCCAUGUGAGAGCGUUGG [JL bmx4 3.37] (Eterna round: R96, puzzle: Brourd's mod of Exclusion 4) | 187 | 30.4 | 25.6 |  |  | 
CCAGCGUAUGUGAGGAUAUGCUGGUCCUUGGAUCAGCAGAAGGCACAUGAGGAUCACCCAUGUGAGAGCGUUGG [JL bmx4 3.37] (puzzle: Brourd's mod of Exclusion 4) |  |  |  | 21.4 |  | 
CCAGGAAGGCAGGAUAUCCAAAGCCGUCCCGGCGGAGAAGGGCUGACUUGAGGAUCACCCAAGUGAUGCCUAAC [Aratquve] (Eterna round: R97, puzzle: Exclusion 6) | 15.2 | 14.8 |  |  |  | 
CCAUAGGGAGGAUAUCCAAUAUAUGACAUGAGGAUCACCCAUGUUUCCACUCGUACCUCCGGAGAAGGCCCAUAAC [Ex5 #8] (Eterna round: R97, puzzle: Exclusion 5) | 24.4 | 21.4 |  |  |  | 
CCAUGUCCGGAGGAUAUGCGCAGACUUACUGCAGCAGAAGGUUGGACUUGAGGAUCACCCAAGUGACCAUUUGU [Esrebionra] (Eterna round: R97, puzzle: Exclusion 6) | 445 | 36 |  |  |  | 
CCCAAAGGGACAAGCUUUUACAUGAGGAUCACCCAUGUUUUGGGAGCUCGUCUUAUGGGCCCGGGAAACCCGGGCCC [-38, -58.7 kcal, A 22%] (Eterna round: R97, puzzle: Sensor, turn-off variant 1) | 17.1 | 17.2 |  |  |  | 
CCCAGAGCGUAAGGAUAUACAUGAGGAUCACCCAUGUCUACAAUAAUAGUACUAUAUGAAGUCGUGUAGAAGGUACGCGCAGGU [Eternabot solution 46] (Eterna round: R96, puzzle: Exclusion NG 2) |  |  | 30.7 |  |  | 
CCCAGUUAGAGAGGAUAUCGUACAUGAGGAUCACCCAUGUAAUAAAUGAGGAUUUCGGGUGUCUACGAGAAGGCUCGGAUAGGC [Ostracism 30 - Jieux - Exclusion NG 2] (Eterna round: R96, puzzle: Exclusion NG 2) | 75.8 | 35.9 | 27.1 |  |  | 
